Consider 21 molecules from patent publication US20240116985A1, “STAPLED PEPTIDES AND METHODS THEREOF” (priority 2020, published 2024).

Assay [1] deals with full-length beta-Catenin (Uniprot ID P35222) (Homo sapiens (Human)) (UniProt P35222). Nature of the assay: fluorescence polarization competition; 10 nM full-length beta-catenin with 10 nM 5FAM-labeled TCF4 residues 10-53 probe (competitor displaced).
Target sequence in this assay (P35222 2-781 limits assumed): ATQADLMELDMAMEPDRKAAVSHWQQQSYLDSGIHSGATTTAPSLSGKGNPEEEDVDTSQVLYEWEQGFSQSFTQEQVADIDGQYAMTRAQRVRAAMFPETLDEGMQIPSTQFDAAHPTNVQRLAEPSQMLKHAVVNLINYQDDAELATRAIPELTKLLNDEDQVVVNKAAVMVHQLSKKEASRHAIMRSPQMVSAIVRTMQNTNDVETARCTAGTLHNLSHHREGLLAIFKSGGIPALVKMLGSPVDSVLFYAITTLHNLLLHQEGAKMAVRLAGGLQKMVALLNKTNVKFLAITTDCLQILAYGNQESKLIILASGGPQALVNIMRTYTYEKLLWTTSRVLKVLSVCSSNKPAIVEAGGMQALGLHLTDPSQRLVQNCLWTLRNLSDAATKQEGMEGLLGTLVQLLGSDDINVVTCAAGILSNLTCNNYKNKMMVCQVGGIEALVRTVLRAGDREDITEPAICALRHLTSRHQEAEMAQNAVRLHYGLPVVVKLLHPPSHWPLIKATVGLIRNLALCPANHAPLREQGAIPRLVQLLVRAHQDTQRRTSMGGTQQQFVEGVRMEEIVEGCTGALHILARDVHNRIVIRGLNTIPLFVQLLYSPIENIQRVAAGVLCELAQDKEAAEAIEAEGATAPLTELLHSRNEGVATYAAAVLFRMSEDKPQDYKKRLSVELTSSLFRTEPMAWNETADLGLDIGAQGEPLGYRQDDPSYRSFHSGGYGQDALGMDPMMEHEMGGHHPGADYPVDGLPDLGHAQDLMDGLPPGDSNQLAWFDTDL
Assay [2] has the same target. Nature of the assay: fluorescence polarization competition; 10 nM full-length beta-catenin, competitor 10 nM 5FAM-TCF4(10-53).
Target sequence in this assay (P35222 whole entry, the tested form may be a part): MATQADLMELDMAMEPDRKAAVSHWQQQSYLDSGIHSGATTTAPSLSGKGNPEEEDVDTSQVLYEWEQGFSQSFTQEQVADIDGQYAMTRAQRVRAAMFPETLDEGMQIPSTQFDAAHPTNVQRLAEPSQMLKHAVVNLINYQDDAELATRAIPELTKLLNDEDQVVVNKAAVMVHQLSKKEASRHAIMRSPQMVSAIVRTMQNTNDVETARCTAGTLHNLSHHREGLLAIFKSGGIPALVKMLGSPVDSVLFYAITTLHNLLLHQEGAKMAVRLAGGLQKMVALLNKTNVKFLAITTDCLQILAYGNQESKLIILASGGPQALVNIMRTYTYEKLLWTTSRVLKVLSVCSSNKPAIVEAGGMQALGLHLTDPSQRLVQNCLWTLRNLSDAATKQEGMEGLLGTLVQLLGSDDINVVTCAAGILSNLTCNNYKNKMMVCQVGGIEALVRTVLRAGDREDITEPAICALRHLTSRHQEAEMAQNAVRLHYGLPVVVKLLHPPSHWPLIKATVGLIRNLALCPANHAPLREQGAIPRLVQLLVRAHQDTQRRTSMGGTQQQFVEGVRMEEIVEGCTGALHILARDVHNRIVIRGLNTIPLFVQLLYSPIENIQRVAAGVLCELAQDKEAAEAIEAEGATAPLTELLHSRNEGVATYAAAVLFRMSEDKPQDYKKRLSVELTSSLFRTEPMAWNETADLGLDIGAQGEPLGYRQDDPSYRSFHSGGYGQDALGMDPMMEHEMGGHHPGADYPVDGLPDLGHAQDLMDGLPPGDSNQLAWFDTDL
The target is the same in assay [3]. Nature of the assay: fluorescence polarization competition; full-length beta-catenin with 5FAM-labeled TCF4 (residues 10-53) probe as competitor.
Target sequence in this assay (P35222 whole entry, the tested form may be a part): as above
Assay [4] has the same target. Nature of the assay: fluorescence polarization competition, full-length beta-catenin, competitor 5FAM-TCF4 10-53.
Target sequence in this assay (P35222 whole entry, the tested form may be a part): as above
Assay [5] has the same target. Nature of the assay: fluorescence polarization competition, 5FAM-TCF4 10-53 probe on full-length beta-catenin.
Target sequence in this assay (P35222 2-781 limits assumed): as the sequence (P35222 2-781 limits assumed) above

Starred links: 1 amine or outer side, 2 acyl side, 3 side chain; linkers in the order of their positions; H or OH if unused. Positions of bridges follow the written chain, without caps; N, C: chain ends. Non-standard residues stand in square brackets, D forms with d. Primed or numbered codes have the meaning given here. PyrS2″ = (S)-3-amino-1-((pent-4-en-1-yloxy)carbonyl)pyrrolidine-3-carboxylic acid (stapling residue), C=CCCCOC(=O)N1CC[C@@](N[*:1])(C(=O)[*:2])C1; B5(24) = 2-amino-2-(pent-4-en-1-yl)hept-6-enoic acid, 2,2-bis(4-pentenyl)glycine (stitching residue), C=CCCCC(CCCC=C)(N[*:1])C(=O)[*:2]; B5(4) = 2,2-bis(4-pentenyl)glycine = 2-amino-2-(pent-4-en-1-yl)hept-6-enoic acid (stitching residue), C=CCCCC(CCCC=C)(N[*:1])C(=O)[*:2]; B5(12) = 2-amino-2-(pent-4-en-1-yl)hept-6-enoic acid (two olefin side chains), C=CCCCC(CCCC=C)(N[*:1])C(=O)[*:2]; B5(19) = 2-amino-2-(pent-4-en-1-yl)hept-6-enoic acid (bis(4-pentenyl)glycine), C=CCCCC(CCCC=C)(N[*:1])C(=O)[*:2]; Ala(morpholin-4-yl) = N[C@@H](CN1CCOCC1)C(=O)O; Phe(3-CONH2) = NC(=O)c1cccc(C[C@H](N)C(=O)O)c1; Phe(3-COOH) = N[C@@H](Cc1cccc(C(=O)O)c1)C(=O)O; Phe(3-Cl) = N[C@@H](Cc1cccc(Cl)c1)C(=O)O; Phe(3-OMe) = COc1cccc(C[C@H](N)C(=O)O)c1; Phe(2-Cl) = N[C@@H](Cc1ccccc1Cl)C(=O)O; Bta = N[C@@H](Cc1csc2ccccc12)C(=O)O; Lys(iPr) = CC(C)NCCCC[C@H](N)C(=O)O; αAllylPro = C=CC[C@@]1(C(=O)O)CCCN1; tBuAla = CC(C)(C)C[C@H](N)C(=O)O; 2Pal = N[C@@H](Cc1ccccn1)C(=O)O; 3Pal = N[C@@H](Cc1cccnc1)C(=O)O; 4Pal = N[C@@H](Cc1ccncc1)C(=O)O; 3Thi = N[C@@H](Cc1ccsc1)C(=O)O; Cha = N[C@@H](CC1CCCCC1)C(=O)O; S8 = C=CCCCCCC[C@](C)(N)C(=O)O; PyrS2(4) = not defined here; hSer = N[C@@H](CCO)C(=O)O; Nle = CCCC[C@H](N)C(=O)O; Aib = CC(C)(N)C(=O)O

Ac-[αAllylPro]N[Cha][B5(19)]DQ[Lys(iPr)]A[Phe(3-CONH2)]N[PyrS2″]F[Bta][hSer]-NH2 (staple 1-4, 4-11) [I-1925]: the IC50 in assay [1] is 475 nM. In other words, the sub-micromolar range.
The molecule Ac-[αAllylPro]DA[B5(4)]DEAAFV[S8][4Pal][Bta]Q-NH2 (staple 1-4, 4-11) [I-385] had an EC50 in assay [2] of 3150 nM. The same molecule registered a concentration for half-maximal inhibition (IC50) in assay [3] of 3150 nM.

B1: I-1913 (peptide)
peptide: Ac-[αAllylPro]D[tBuAla][B5(12)]D[Phe(3-COOH)][Nle]AFL[PyrS2(4)][3Thi][Bta]F-NH2
modifications: staple 1-4, 4-11; not fully specified; printed as Ac-PL3-Asp-Npg-B5-Asp-3COOHF-nLeu-Ala-Phe-Leu-PyrS2-3Thi-BztA-Phe-NH2; reading uncertain
As for B1, the IC50 in assay [1] turned out to be 119 nM.

B2: I-1924 (peptide)
peptide: Ac-[αAllylPro]N[Cha][B5(12)]DQ[Lys(iPr)]A[Phe(3-Cl)]N[PyrS2(4)]F[Bta][hSer]-NH2
modifications: staple 1-4, 4-11; not fully specified; printed as Ac-PL3-Asn-Cha-B5-Asp-Gln-iPrLys-Ala-3C1F-Asn-PyrS2-Phe-BztA-Hse-NH2; reading uncertain
As for B2, the IC50 in assay [1] is 1610 nM.
Ac-[αAllylPro]D[Cha][B5(4)]DDAAFS[PyrS2″][Phe(2-Cl)][Bta]T-NH2 (staple 1-4, 4-11) [I-1135] returned an IC50 in assay [4] of 20 nM. The EC50 in assay [5] is 20 nM.
With Ac-[αAllylPro]N[Cha][B5(19)]DQ[Lys(iPr)]AFN[PyrS2″][Phe(3-CONH2)][Bta][hSer]-NH2 (staple 1-4, 4-11) [I-1929], the IC50 in assay [1] was determined as 74 nM.

B3: I-1916 (peptide)
peptide: Ac-[αAllylPro]D[tBuAla][B5(4)]D[Phe(3-COOH)]HAFL[PyrS2(4)][3Thi][Bta]A-NH2
modifications: staple 1-4, 4-11; not fully specified; printed as Ac-PL3-Asp-Npg-B5-Asp-3COOHF-His-Ala-Phe-Leu-PyrS2-3Thi-BztA-Ala-NH2; reading uncertain
Molecule B3 registered an IC50 in assay [1] of 8 nM.
The same measure, in the same setting: as for Ac-[αAllylPro]N[Cha][B5(19)]DQ[Lys(iPr)]AFN[PyrS2″][Phe(3-OMe)][Bta][hSer]-NH2 (staple 1-4, 4-11) [I-1930], the figure is 1560 nM.

B4: I-1918 (peptide)
peptide: Ac-[αAllylPro]D[tBuAla][B5(4)]D[Phe(3-COOH)]QAFL[PyrS2(4)][3Thi][Bta]A-NH2
modifications: staple 1-4, 4-11; not fully specified; printed as Ac-PL3-Asp-Npg-B5-Asp-3COOHF-Gln-Ala-Phe-Leu-PyrS2-3Thi-BztA-Ala-NH2; reading uncertain
Consider B4, for which the IC50 in assay [1] is 5 nM.
In assay [4], Ac-[αAllylPro]D[tBuAla][B5(4)]DDAAFN[PyrS2″][Phe(2-Cl)][Bta][Ala(morpholin-4-yl)]-NH2 (staple 1-4, 4-11; also: earlier eluting staple isomer) [I-1133] came in with an IC50 of 5 nM. Moreover, in assay [5], the EC50 is 5 nM.

B5: I-1914 (peptide)
peptide: Ac-[αAllylPro]D[tBuAla][B5(12)]D[Phe(3-COOH)][Aib]AFL[PyrS2(4)][3Thi][Bta]F-NH2
modifications: staple 1-4, 4-11; not fully specified; printed as Ac-PL3-Asp-Npg-B5-Asp-3COOHF-Aib-Ala-Phe-Leu-PyrS2-3Thi-BztA-Phe-NH2; reading uncertain
In turn, B5 yielded an IC50 in assay [1] of 52 nM. That is a double-digit nanomolar value.
In turn, Ac-[αAllylPro]D[Cha][B5(24)]DDAAFS[PyrS2″][Phe(2-Cl)][Bta][dT]-NH2 (staple 1-4, 4-11) [I-1136] yielded an IC50 in assay [4] of 16 nM. The molecule also gave an EC50 in assay [5] of 16 nM.
In assay [1], Ac-[αAllylPro]N[Cha][B5(19)]DQ[Lys(iPr)]AFN[PyrS2″][3Pal][Bta][hSer]-NH2 (staple 1-4, 4-11) [I-1927] displayed an IC50 of 5140 nM.
Still for that read-out and setting: as for Ac-[αAllylPro]N[Cha][B5(19)]DQ[Lys(iPr)]SFN[PyrS2″]F[Bta][hSer]-NH2 (staple 1-4, 4-11) [I-1931], the figure is 1560 nM.

B6: I-1923 (peptide)
peptide: Ac-[αAllylPro]N[Cha][B5(12)]DQ[Lys(iPr)]A[3Pal]N[PyrS2(4)]F[Bta][hSer]-NH2
modifications: staple 1-4, 4-11; not fully specified; printed as Ac-PL3-Asn-Cha-B5-Asp-Gln-iPrLys-Ala-3PyrA-Asn-PyrS2-Phe-BztA-Hse-NH2; reading uncertain
On to B6, for which, in assay [1], the IC50 was found to be 10000 nM.
In the case of Ac-[αAllylPro]DA[B5(4)]DEAAFV[S8][2Pal][Bta]Q-NH2 (staple 1-4, 4-11; also: later eluting staple isomer) [I-384], in assay [3], the IC50 is 177 nM.
Ac-[αAllylPro]N[Cha][B5(19)]DQ[Lys(iPr)]A[Phe(3-OMe)]N[PyrS2″]F[Bta][hSer]-NH2 (staple 1-4, 4-11) [I-1926]: the IC50 in assay [1] was 417 nM.
Ac-[αAllylPro]D[tBuAla][B5(4)]DDAAFN[PyrS2″][Phe(2-Cl)][Bta][Ala(morpholin-4-yl)]-NH2 (staple 1-4, 4-11; also: later eluting staple isomer) [I-1134] had an IC50 in assay [4] of 6 nM. In assay [5], this molecule yielded an EC50 of 6 nM.
In turn, Ac-[αAllylPro]N[Cha][B5(19)]D[hSer][Lys(iPr)]AFN[PyrS2″]F[Bta][hSer]-NH2 (staple 1-4, 4-11) [I-1933] returned an IC50 in assay [1] of 154 nM.
Ac-[αAllylPro]N[Cha][B5(19)]DQ[Lys(iPr)]AFN[PyrS2″][Phe(3-Cl)][Bta][hSer]-NH2 (staple 1-4, 4-11) [I-1928] displayed an IC50 in assay [1] of 887 nM. This IC50 lies about 5.8-fold higher than the previous one.

B7: I-1922 (peptide)
peptide: Ac-[αAllylPro]N[Cha][B5(12)]DQ[Lys(iPr)]AF[hSer][PyrS2(4)]F[Bta][hSer]-NH2
modifications: staple 1-4, 4-11; not fully specified; printed as Ac-PL3-Asn-Cha-B5-Asp-Gln-iPrLys-Ala-Phe-Hse-PyrS2-Phe-BztA-Hse-NH2; reading uncertain
The molecule B7 had an IC50 in assay [1] of 457 nM.
